The labels stand for the following.
T1: mouse GLP-1 receptor (mouse, UniProt O35659 22-463)
T1 sequence (looked up): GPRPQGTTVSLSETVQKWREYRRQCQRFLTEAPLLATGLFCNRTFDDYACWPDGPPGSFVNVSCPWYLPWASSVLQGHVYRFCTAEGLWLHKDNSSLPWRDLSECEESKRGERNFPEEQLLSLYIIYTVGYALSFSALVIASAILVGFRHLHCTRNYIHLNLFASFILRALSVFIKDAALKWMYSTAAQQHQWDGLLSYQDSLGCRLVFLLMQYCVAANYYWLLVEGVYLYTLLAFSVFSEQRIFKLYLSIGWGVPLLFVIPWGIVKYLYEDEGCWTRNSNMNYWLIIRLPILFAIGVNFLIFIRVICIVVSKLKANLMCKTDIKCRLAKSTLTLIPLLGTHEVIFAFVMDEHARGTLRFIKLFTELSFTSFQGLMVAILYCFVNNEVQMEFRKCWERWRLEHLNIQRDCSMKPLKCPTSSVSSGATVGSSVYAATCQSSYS

B1: [Gly8]GLP1(7-37) cyc[Glu15-Lys19] (SEQ ID NO: 36) (peptide)
peptide: HGEGTFTSDVSSYLEGQAKKEFIAWLVKGRG
modifications: side-chain cyclic lactam between Glu15 and Lys19 (counted on the peptide; GLP-1 positions 21 and 25); C-terminal amide
B2: [Gly8]GLP1(7-37) cyclo[Glu18-Lys22] (SEQ ID NO: 39) (peptide)
peptide: B1 peptide with A18E, K19A, F22K
modifications: side-chain cyclic lactam between Glu18 and Lys22 (counted on the peptide; GLP-1 positions 24 and 28); C-terminal amide
B3: [Gly8]cyclo[21-26] GLP1(7-37)-amide (SEQ ID NO: 42) (peptide)
peptide: B1 peptide with K19A
modifications: side-chain cyclic lactam between positions 21 (Glu) and 26 (Lys) (GLP-1 numbering; residues 15 and 20 of the entry); C-terminal amide

Substitutions are numbered along the chain they refer to. Non-standard residues stand in square brackets, D forms with d. Primed or numbered codes have the meaning given here. No end group written: not given here. mPEG40k‑branched = branched 40 kDa PEG (2 × 20 kDa) maleimide, attached to the Cys thiol; mPEG‑maleimide = 30 kD linear mPEG-maleimide attached to the Cys; mPEG 20 kDa = 20 kD mPEG-maleimide, thioether-linked to the Cys; branched PEG 40 kDa″ = 40 kDa branched poly(ethylene glycol); Aib′ = alpha aminobutyric acid (source's wording)

One assay has as its target T2, human GLP-1 receptor (human, UniProt P43220 24-463). Put plainly: cell-based or functional assay.
HGEGTFTSDVSSYLEGQAAKEFIAWLVKGRGC(PEG 30 kDa)SG [cgGLP-16 (SEQ ID NO: 10 + 30k PEG)] yielded an EC50 human of 0.39 nM.

Another assay has as its target T1, mouse GLP-1 receptor. Put plainly: cell-based or functional assay.
Regarding HGEGTFTSDVSSYLEGQAAKEFIAWLVKGRGC(branched PEG 40 kDa″)SG [cgGLP-5 (SEQ ID NO: 10 + 40k branched PEG)], the EC50 mouse came out at 1.5 nM.

HGEGTFTSDVSSYLEGQAAKEFIAWLVKGRGC(PEG 30 kDa)SG [cgGLP-16 (SEQ ID NO: 10 + 30k PEG)]: the EC50 mouse amounted to 4 nM.

Another assay concerns the target T2, human GLP-1 receptor. Put plainly: cell-based or functional assay. This is another data set of the same source.
The molecule HGEGTFTSDVSSYLE[Aib′]QAAKEFIAWLVKGRGC(mPEG‑maleimide 20 kDa)SGG-NH2 [mgGLP-15 (SEQ ID NO: 24 + 20k PEG)] had an EC50 human of 0.2 nM.

In turn, H[Aib′]EGTFTSDVSSYLE[Aib′]QAAKEFIAWLVKGRGC(mPEG 20 kDa)SG [cgGLP-20 (SEQ ID NO: 25 + 20k mPEG)] came in with an EC50 human of 0.099 nM.

The molecule HGEGTFTSDVSSYLE[Aib′]QAAKEFIAWLVKGRGC(mPEG40k‑branched)SG-NH2 [cgGLP-29 (SEQ ID NO: 22 + 40k branched PEG)] displayed an EC50 human of 0.15 nM.

For the molecule HGEGTFTSDVSSYLE[Aib′]QAAKEFIAWLVKGRGC(mPEG‑maleimide)SG-NH2 (also: PEG on Cys32: 30k, but the text says branched 40 kDa) [cgGLP-28 (SEQ ID NO: 22 + 30k PEG)], the EC50 human was found to be 0.1 nM.

For the molecule HGEGTFTSDVSSYLE[Aib′]QAAKEFIAWLVKGRGC(mPEG‑maleimide 10 kDa)SG-NH2 [cgGLP-26 (SEQ ID NO: 22 + 10k PEG)], the EC50 human came out at 0.059 nM.

In the case of HGEGTFTSDVSSYLE[Aib′]QAAKEFIAWLVKGRGC(mPEG‑maleimide 20 kDa)SG-NH2 [cgGLP-24 cgGLP-27, mgGLP-22, mgGLP-33 & mgGLP-27 (SEQ ID NO: 22 + 20k PEG)], the EC50 human turned out to be 0.1 nM.

Turning to HGEGTFTSDVSSYLE[Aib′]QAAKEFIAWLVKGRGC(mPEG‑maleimide 20 kDa)SG (also called cgGLP-19) [mgGLP19 & cgGLP- (SEQ ID NO: 21 + 20k PEG)], the EC50 human was found to be 0.00032 nM.

HGEGTFTSDVSSYLE[Aib′]QAAKEFIAWLVKGRGC(mPEG‑maleimide 5 kDa)SG-NH2 (also called cgGLP-25) [cpGLP-25 (SEQ ID NO: 22 + 5k PEG)] yielded an EC50 human of 0.039 nM.

The next assay deals with T1, mouse GLP-1 receptor. Put plainly: cell-based or functional assay. This is another data set of the same source.
Molecule HGEGTFTSDVSSYLE[Aib′]QAAKEFIAWLVKGRGC(mPEG‑maleimide 20 kDa)SGG-NH2 [mgGLP-15 (SEQ ID NO: 24 + 20k PEG)] came in with an EC50 mouse of 1.8 nM.

Consider H[Aib′]EGTFTSDVSSYLE[Aib′]QAAKEFIAWLVKGRGC(mPEG 20 kDa)SG [cgGLP-20 (SEQ ID NO: 25 + 20k mPEG)], for which the EC50 mouse amounted to 1.5 nM.

In the case of HGEGTFTSDVSSYLE[Aib′]QAAKEFIAWLVKGRGC(mPEG40k‑branched)SG-NH2 [cgGLP-29 (SEQ ID NO: 22 + 40k branched PEG)], the EC50 mouse was 1 nM.

In turn, HGEGTFTSDVSSYLE[Aib′]QAAKEFIAWLVKGRGC(mPEG‑maleimide)SG-NH2 (also: PEG on Cys32: 30k, but the text says branched 40 kDa) [cgGLP-28 (SEQ ID NO: 22 + 30k PEG)] gave an EC50 mouse of 0.8 nM.

For the molecule HGEGTFTSDVSSYLE[Aib′]QAAKEFIAWLVKGRGC(mPEG‑maleimide 10 kDa)SG-NH2 [cgGLP-26 (SEQ ID NO: 22 + 10k PEG)], the EC50 mouse was determined as 0.9 nM.

In turn, HGEGTFTSDVSSYLE[Aib′]QAAKEFIAWLVKGRGC(mPEG‑maleimide 20 kDa)SG-NH2 [cgGLP-24 cgGLP-27, mgGLP-22, mgGLP-33 & mgGLP-27 (SEQ ID NO: 22 + 20k PEG)] showed an EC50 mouse of 0.84 nM.

With HGEGTFTSDVSSYLE[Aib′]QAAKEFIAWLVKGRGC(mPEG‑maleimide 20 kDa)SG (also called cgGLP-19) [mgGLP19 & cgGLP- (SEQ ID NO: 21 + 20k PEG)], the EC50 mouse was found to be 4 nM.

In turn, HGEGTFTSDVSSYLE[Aib′]QAAKEFIAWLVKGRGC(mPEG‑maleimide 5 kDa)SG-NH2 (also called cgGLP-25) [cpGLP-25 (SEQ ID NO: 22 + 5k PEG)] came in with an EC50 mouse of 0.9 nM.

For another assay, the target named is T2, human GLP-1 receptor. Put plainly: cell-based or functional assay. This is another data set of the same source.
Take B1: the EC50 human is 0.15 nM.

B2 showed an EC50 human of 0.8 nM.

B3 yielded an EC50 human of 0.6 nM.

The next assay concerns the target T2, human GLP-1 receptor. Put plainly: 125I-GLP-1 displacement, membranes of CHOK1 cells expressing human GLP-1 receptor. Here is the method: Membrane Preparation. […] Cells were sedimented at 1500 rpm for 10 minutes. The resulting pellets were homogenized in 15 mls of ice cold sucrose buffer (25 mM Tris-HCl, 0.32 M Sucrose, 0.25 g/L, sodium azide, pH 7.4) with a motorized, glass fitted, Teflon homogenizer. The homogenate was centrifuged at 48,000×g at 4° C. for 10 minutes, resuspended in 25 ml assay buffer (50 mM Tris-HCl, 5 mM MgCl₂, 10 mg/ml protease-free BSA, 0.1 mg/ml STI, and 0.1 mg/ml Pefabloc, pH 7.4) with a Tissue-Tearor (Biospec Products), then centrifuged again at 48,000×g for 10 minutes. The pellets were homogenized for a third time in 15 ml assay buffer using the Tissue-Tearor and again centrifuged at 48,000×g for 10 minutes. The resulting pellet was resuspended in assay buffer at a wet weight concentration of 4 mg/ml.
Ligand Binding Assay. Binding assays were performed in 96-well U-bottom plates. […] The reaction was terminated by rapid filtration through Unfilter-96 GF/C glass fiber filter plates (FilterMate 196 Packard Harvester, PerkinElmer, Shelton, Conn.) pre-soaked in 0.5% polyethylenimine, followed by three washes with 300 μl of cold 50 mM Tris-HCl, pH 7.4. Bound radioactivity was determined using a TopCount microplate scintillation and luminescence counter (Packard Instrument Company, PerkinElmer, Shelton, Conn.). Nonlinear regression analyses of resulting concentration curves were performed using GraphPad Prism (GraphPad Software, Inc., San Diego, Calif.). […]
HGEGTFTSDVSSYLE[Aib′]QAAKEFIAWLVKGRGC(mPEG‑maleimide 20 kDa)SGG-NH2 [mgGLP-15 (SEQ ID NO: 24 + 20k PEG)] displayed an IC50 of 100 nM.

Turning to H[Aib′]EGTFTSDVSSYLE[Aib′]QAAKEFIAWLVKGRGC(mPEG 20 kDa)SG [cgGLP-20 (SEQ ID NO: 25 + 20k mPEG)], the IC50 came out at 30 nM.

For the molecule HGEGTFTSDVSSYLE[Aib′]QAAKEFIAWLVKGRGC(mPEG40k‑branched)SG-NH2 [cgGLP-29 (SEQ ID NO: 22 + 40k branched PEG)], the IC50 worked out at 800 nM.

For the molecule HGEGTFTSDVSSYLE[Aib′]QAAKEFIAWLVKGRGC(mPEG‑maleimide)SG-NH2 (also: PEG on Cys32: 30k, but the text says branched 40 kDa) [cgGLP-28 (SEQ ID NO: 22 + 30k PEG)], the IC50 came out at 71 nM.

As to HGEGTFTSDVSSYLE[Aib′]QAAKEFIAWLVKGRGC(mPEG‑maleimide 10 kDa)SG-NH2 [cgGLP-26 (SEQ ID NO: 22 + 10k PEG)], the IC50 worked out at 23 nM.

HGEGTFTSDVSSYLE[Aib′]QAAKEFIAWLVKGRGC(mPEG‑maleimide 20 kDa)SG-NH2 [cgGLP-24 cgGLP-27, mgGLP-22, mgGLP-33 & mgGLP-27 (SEQ ID NO: 22 + 20k PEG)] gave an IC50 of 47 nM.

Molecule HGEGTFTSDVSSYLE[Aib′]QAAKEFIAWLVKGRGC(mPEG‑maleimide 20 kDa)SG (also called cgGLP-19) [mgGLP19 & cgGLP- (SEQ ID NO: 21 + 20k PEG)] showed an IC50 of 230 nM.

Molecule HGEGTFTSDVSSYLE[Aib′]QAAKEFIAWLVKGRGC(mPEG‑maleimide 5 kDa)SG-NH2 (also called cgGLP-25) [cpGLP-25 (SEQ ID NO: 22 + 5k PEG)] yielded an IC50 of 15 nM.

For the origin of these results see patent US20100048468A1 (Amgen, published 2010).
